Measurements taken from patent US20230203197A1 (UNIVERSITE DE TOUR, published 2023).
Where two headings read alike, the source gives them in different places.

T1: OVA
T1 construct: One of the antigens of group m15; also called ovalbumin
T1 chain: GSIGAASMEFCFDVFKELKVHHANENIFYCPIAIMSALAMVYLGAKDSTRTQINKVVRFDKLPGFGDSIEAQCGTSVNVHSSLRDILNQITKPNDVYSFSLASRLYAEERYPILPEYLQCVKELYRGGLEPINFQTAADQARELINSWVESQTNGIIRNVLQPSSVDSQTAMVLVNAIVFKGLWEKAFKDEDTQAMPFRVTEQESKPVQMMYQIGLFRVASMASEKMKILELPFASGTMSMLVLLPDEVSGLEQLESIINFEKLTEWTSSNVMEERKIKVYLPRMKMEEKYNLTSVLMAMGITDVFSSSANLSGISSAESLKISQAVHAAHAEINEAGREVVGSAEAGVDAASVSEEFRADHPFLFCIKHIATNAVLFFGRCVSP

T2: Elastase (UniProt P08246 30-247, limits assumed)
T2 sequence (looked up): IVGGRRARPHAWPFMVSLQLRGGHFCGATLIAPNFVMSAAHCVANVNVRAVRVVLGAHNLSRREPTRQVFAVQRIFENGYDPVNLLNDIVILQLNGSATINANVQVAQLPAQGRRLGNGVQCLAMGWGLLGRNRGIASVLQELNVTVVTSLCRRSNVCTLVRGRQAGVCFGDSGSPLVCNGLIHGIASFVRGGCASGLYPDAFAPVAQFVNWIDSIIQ

T3: Cathepsin G (Cath G) (UniProt P08311 21-244)
T3 sequence (looked up): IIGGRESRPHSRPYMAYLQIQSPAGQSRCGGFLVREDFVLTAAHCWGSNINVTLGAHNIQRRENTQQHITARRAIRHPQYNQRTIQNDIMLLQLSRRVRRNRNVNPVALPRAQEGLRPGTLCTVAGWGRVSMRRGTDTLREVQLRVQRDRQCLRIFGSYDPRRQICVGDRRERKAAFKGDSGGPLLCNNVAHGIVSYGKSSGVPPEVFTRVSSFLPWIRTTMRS

T4: neutrophil proteinase 3 (PR3), purified native human PR3 (human, UniProt P24158 28-248)
T4 construct: Also used in denatured form in western blot and as the antigen of the EuroImmun anti-PR3 kit; also called native PR3
T4 sequence: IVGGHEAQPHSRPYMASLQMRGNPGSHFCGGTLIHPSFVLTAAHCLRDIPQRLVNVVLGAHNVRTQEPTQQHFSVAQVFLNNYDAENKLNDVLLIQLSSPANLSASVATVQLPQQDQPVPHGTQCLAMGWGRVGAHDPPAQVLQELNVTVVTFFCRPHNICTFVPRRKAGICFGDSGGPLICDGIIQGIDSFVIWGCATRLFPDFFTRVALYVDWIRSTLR

B1: human monoclonal anti-proteinase 3 (PR3) 4C3 antibody, G1m3-1 allotype (antibody, human IgG1, kappa)
heavy: not shown
light: DIQMTQSPPTLSASVGDRVTITCRASQSISDWLAWYQQKPGKPPQLLIYKASSLESGVPSRFSGTGSGAEFTLTISSLQPDDSATYYCQQYNSYSNTFGQGTKLEIKRTVAAPSVFIFPPSDEQLKSGTASVVCLLNNFYPREAKVQWKVDNALQSGNSQESVTEQDSKDSTYSLSSTLTLSKADYEKHKVYACEVTHQGLSSPVTKSFNRGEC
notes: also called MAb 4C3; AcMo 4C3
B2: recombinant 4C3 antibody (r4C3), G1m17-1 allotype (antibody, human IgG1, kappa)
heavy: not shown
light: B1 light
notes: Produced in HEK-293 cells; differs from 4C3 only by R>K at position 224 of the heavy chain constant region

What was measured:
OVA [1] = molecular target: T1, OVA; assay: specificity ELISA on different coated antigens (n=5)
Elastase = molecular target: T2, Elastase; assay: western blot, 4C3 as the primary antibody
Description: (§1) To confirm anti-PR3 specificity, 4C3 was used as a primary antibody in western blot (FIGS. 8A and 8B) on protein lysates from neutrophils, HeLa cells (ATCC® CCL-2™) and human PR3.

Cathepsin G (Cath G) = molecular target: T3, Cathepsin G (Cath G); assay: western blot, 4C3 as the primary antibody
Description: as §1

BSA = molecular target: T5, BSA (bovine, UniProt P02769); assay: ELISA, compared with coated PR3
T5 construct: in the ELISA well; also called Bovine Serum Albumin
T5 sequence (P02769 25-607 limits assumed): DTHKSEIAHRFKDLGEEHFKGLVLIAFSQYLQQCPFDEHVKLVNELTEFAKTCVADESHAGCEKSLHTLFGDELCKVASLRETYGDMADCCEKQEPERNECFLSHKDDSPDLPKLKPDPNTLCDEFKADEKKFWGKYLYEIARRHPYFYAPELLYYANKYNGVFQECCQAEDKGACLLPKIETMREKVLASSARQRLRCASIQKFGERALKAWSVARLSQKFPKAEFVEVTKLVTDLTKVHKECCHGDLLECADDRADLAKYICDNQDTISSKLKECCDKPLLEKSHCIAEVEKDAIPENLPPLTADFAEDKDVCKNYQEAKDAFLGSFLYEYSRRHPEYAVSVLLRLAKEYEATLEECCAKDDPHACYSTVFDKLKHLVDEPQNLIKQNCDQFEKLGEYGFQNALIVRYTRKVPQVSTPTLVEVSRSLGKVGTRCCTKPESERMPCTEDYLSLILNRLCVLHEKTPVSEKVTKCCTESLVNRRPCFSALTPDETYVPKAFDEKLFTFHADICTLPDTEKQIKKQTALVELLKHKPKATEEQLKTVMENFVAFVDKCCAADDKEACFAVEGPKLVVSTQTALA

[2] = molecular target: T6, peptide 4C3_3.2 of PR3, biotinylated (human, biotinylated (position not given)); assay: HTRF: anti-Fab antibody coupled to d2 on 4C3, terbium-streptavidin on the biotinylated peptide; ratio, baseline-corrected
T6 construct: also called peptide 3.2
Method: The identification of the epitope recognised by the 4C3 antibody was carried out by MabSilico. The first step enabled the PR3 epitope to be modelled using the MabTope method, which consists of the computer prediction of an ordered list of PR3 peptides likely to belong to the epitope from the sequence of the variable part (VH and VL) of 4C3 (FIGS. 4B and 4C). The second step allowed the experimental measurement of the specific binding of a number of these peptides to the antibody. This measurement was made by HTRF (Homogeneous Time Resolved Fluorescence) between an anti-Fab d2-coupled antibody (CisBio™) which binds to the antibody of interest, and a terbium-coupled streptavidin (CisBio™) which binds to the biotinylated peptide (FIG. 4D).

[3] = molecular target: T4, neutrophil proteinase 3 (PR3), purified …; assay: BIACORE (SPR)
OVA [4] = molecular target: T1, OVA; assay: ELISA, compared with coated PR3
[5] = molecular target: T4, neutrophil proteinase 3 (PR3), purified …; assay: BIACORE (SPR); remark: listed apart in the source

Binder | binding result (OVA [1]) | binding result (Elastase) | binding result (Cathepsin G (Cath G)) | binding result (BSA) | binding result [2] | Kd [3] | koff [3] | kon [3] | binding result (OVA [4]) | Kd [5] | koff [5] | kon [5]
B1 | no binding | no binding (tested: 5 µg per lane) | no binding (tested: 5 µg per lane) | no binding | binds | 0.741 nM | 0.00936 s⁻¹ | 1.26e+07 M⁻¹ s⁻¹ | – | – | – | –
B2 | – | – | – | no binding | – | – | – | – | no binding (tested: 1 µg/ml (coating of Ova)) | 0.684 nM | 0.00936 s⁻¹ | 1.37e+07 M⁻¹ s⁻¹
